Assay results taken from ChEMBL document CHEMBL3526122, “Identification of UDP-glucuronosyltransferases responsible for the glucuronidation of darexaban, an oral factor Xa inhibitor, in human liver and intestine” (Drug Metab Dispos, 2012).
Each block holds one molecule with its values, some of them ahead of it.

Columns and labels:
[1] = Drug level in human intestinal microsomes treated with darexaban at 30 uM after 10 mins by LC-MS/MS analysis in presence of UDPGA; assay type: ADME, Intestine, Microsome
Liver microsome = assay: Drug level in human liver microsomes treated with darexaban at 30 uM after 10 mins by LC-MS/MS analysis in presence of UDPGA; assay type: ADME
[2] = substrate: COc1ccc(C(=O)Nc2cccc(O)c2NC(=O)c2ccc(N3CCCN(C)CC3)cc2)cc1; assay: Activity of human recombinant UGT1A9 expressed in baculovirus-infected insect cells assessed as enzyme-mediated glucuronidation after 5 mins by Michaelis-Menten plot analysis in presence of UDPGA and 2% fatty acid free BSA; assay type: ADME
[3] = substrate: COc1ccc(C(=O)Nc2cccc(O)c2NC(=O)c2ccc(N3CCCN(C)CC3)cc2)cc1; assay: Activity of human recombinant UGT1A9 expressed in baculovirus-infected insect cells assessed as enzyme-mediated glucuronidation after 5 mins by Michaelis-Menten plot analysis in presence of UDPGA and 0.1% fatty acid free BSA; assay type: ADME
[4] = substrate: COc1ccc(C(=O)Nc2cccc(O)c2NC(=O)c2ccc(N3CCCN(C)CC3)cc2)cc1; assay: Activity of human recombinant UGT1A9 expressed in baculovirus-infected insect cells assessed as enzyme-mediated glucuronidation after 5 mins by Michaelis-Menten plot analysis in presence of UDPGA and 0.5% fatty acid free BSA; assay type: ADME
[5] = substrate: COc1ccc(C(=O)Nc2cccc(O)c2NC(=O)c2ccc(N3CCCN(C)CC3)cc2)cc1; assay: Activity of human recombinant UGT1A9 expressed in baculovirus-infected insect cells assessed as enzyme-mediated glucuronidation after 5 mins by Michaelis-Menten plot analysis in presence of UDPGA; assay type: ADME
[6] = substrate: COc1ccc(C(=O)Nc2cccc(O)c2NC(=O)c2ccc(N3CCCN(C)CC3)cc2)cc1; assay: Activity of human recombinant UGT1A9 expressed in baculovirus-infected insect cells assessed as enzyme-mediated glucuronidation after 5 mins by Michaelis-Menten plot analysis in presence of UDPGA and absence of fatty acid free BSA; assay type: ADME
[7] = substrate: COc1ccc(C(=O)Nc2cccc(O)c2NC(=O)c2ccc(N3CCCN(C)CC3)cc2)cc1; assay: Activity of human recombinant UGT1A10 expressed in baculovirus-infected insect cells assessed as enzyme-mediated glucuronidation after 10 mins in presence of UDPGA; assay type: ADME
[8] = substrate: COc1ccc(C(=O)Nc2cccc(O)c2NC(=O)c2ccc(N3CCCN(C)CC3)cc2)cc1; assay: Activity of human recombinant UGT1A8 expressed in baculovirus-infected insect cells assessed as enzyme-mediated glucuronidation after 10 mins in presence of UDPGA; assay type: ADME
[9] = substrate: COc1ccc(C(=O)Nc2cccc(O)c2NC(=O)c2ccc(N3CCCN(C)CC3)cc2)cc1; assay: Activity of human recombinant UGT1A7 expressed in baculovirus-infected insect cells assessed as enzyme-mediated glucuronidation after 10 mins by Michaelis-Menten plot analysis in presence of UDPGA; assay type: ADME

Drug metabolism [1]: metabolite_detected
Drug metabolism (Liver microsome): metabolite_detected
Molecule: COc1ccc(C(=O)Nc2cccc(O[C@@H]3O[C@H](C(=O)O)[C@@H](O)[C@H](O)[C@H]3O)c2NC(=O)c2ccc(N3CCCN(C)CC3)cc2)cc1

B1: UDP-glucuronosyltransferase 1A9 (Homo sapiens) (protein)
chain: MACTGWTSPLPLCVCLLLTCGFAEAGKLLVVPMDGSHWFTMRSVVEKLILRGHEVVVVMPEVSWQLGRSLNCTVKTYSTSYTLEDLDREFKAFAHAQWKAQVRSIYSLLMGSYNDIFDLFFSNCRSLFKDKKLVEYLKESSFDAVFLDPFDNCGLIVAKYFSLPSVVFARGILCHYLEEGAQCPAPLSYVPRILLGFSDAMTFKERVRNHIMHLEEHLLCHRFFKNALEIASEILQTPVTEYDLYSHTSIWLLRTDFVLDYPKPVMPNMIFIGGINCHQGKPLPMEFEAYINASGEHGIVVFSLGSMVSEIPEKKAMAIADALGKIPQTVLWRYTGTRPSNLANNTILVKWLPQNDLLGHPMTRAFITHAGSHGVYESICNGVPMVMMPLFGDQMDNAKRMETKGAGVTLNVLEMTSEDLENALKAVINDKSYKENIMRLSSLHKDRPVEPLDLAVFWVEFVMRHKGAPHLRPAAHDLTWYQYHSLDVIGFLLAVVLTVAFITFKCCAYGYRKCLGKKGRVKKAHKSKTH
Km [2]: 18.3 µM
Km [3]: 22.4 µM
Km [4]: 22.7 µM
Km [5]: 58.2 µM
Km [6]: 35.5 µM

B2: UDP-glucuronosyltransferase 1A10 (Homo sapiens) (protein)
chain: MARAGWTSPVPLCVCLLLTCGFAEAGKLLVVPMDGSHWFTMQSVVEKLILRGHEVVVVMPEVSWQLERSLNCTVKTYSTSYTLEDQNREFMVFAHAQWKAQAQSIFSLLMSSSSGFLDLFFSHCRSLFNDRKLVEYLKESSFDAVFLDPFDTCGLIVAKYFSLPSVVFTRGIFCHHLEEGAQCPAPLSYVPNDLLGFSDAMTFKERVWNHIVHLEDHLFCQYLFRNALEIASEILQTPVTAYDLYSHTSIWLLRTDFVLDYPKPVMPNMIFIGGINCHQGKPLPMEFEAYINASGEHGIVVFSLGSMVSEIPEKKAMAIADALGKIPQTVLWRYTGTRPSNLANNTILVKWLPQNDLLGHPMTRAFITHAGSHGVYESICNGVPMVMMPLFGDQMDNAKRMETKGAGVTLNVLEMTSEDLENALKAVINDKSYKENIMRLSSLHKDRPVEPLDLAVFWVEFVMRHKGAPHLRPAAHDLTWYQYHSLDVIGFLLAVVLTVAFITFKCCAYGYRKCLGKKGRVKKAHKSKTH
Km [7]: 34.2 µM
Vmax [7]: 0.00136 µmol/min

B3: UDP-glucuronosyltransferase 1A8 (Homo sapiens) (protein)
chain: MARTGWTSPIPLCVSLLLTCGFAEAGKLLVVPMDGSHWFTMQSVVEKLILRGHEVVVVMPEVSWQLGKSLNCTVKTYSTSYTLEDLDREFMDFADAQWKAQVRSLFSLFLSSSNGFFNLFFSHCRSLFNDRKLVEYLKESSFDAVFLDPFDACGLIVAKYFSLPSVVFARGIACHYLEEGAQCPAPLSYVPRILLGFSDAMTFKERVRNHIMHLEEHLFCQYFSKNALEIASEILQTPVTAYDLYSHTSIWLLRTDFVLDYPKPVMPNMIFIGGINCHQGKPLPMEFEAYINASGEHGIVVFSLGSMVSEIPEKKAMAIADALGKIPQTVLWRYTGTRPSNLANNTILVKWLPQNDLLGHPMTRAFITHAGSHGVYESICNGVPMVMMPLFGDQMDNAKRMETKGAGVTLNVLEMTSEDLENALKAVINDKSYKENIMRLSSLHKDRPVEPLDLAVFWVEFVMRHKGAPHLRPAAHDLTWYQYHSLDVIGFLLAVVLTVAFITFKCCAYGYRKCLGKKGRVKKAHKSKTH
Km [8]: 11.8 µM
Vmax [8]: 0.000608 µmol/min

B4: UDP-glucuronosyltransferase 1A7 (Homo sapiens) (protein)
chain: MARAGWTGLLPLYVCLLLTCGFAKAGKLLVVPMDGSHWFTMQSVVEKLILRGHEVVVVMPEVSWQLGRSLNCTVKTYSTSYTLEDQDREFMVFADARWTAPLRSAFSLLTSSSNGIFDLFFSNCRSLFNDRKLVEYLKESCFDAVFLDPFDACGLIVAKYFSLPSVVFARGIFCHYLEEGAQCPAPLSYVPRLLLGFSDAMTFKERVWNHIMHLEEHLFCPYFFKNVLEIASEILQTPVTAYDLYSHTSIWLLRTDFVLEYPKPVMPNMIFIGGINCHQGKPVPMEFEAYINASGEHGIVVFSLGSMVSEIPEKKAMAIADALGKIPQTVLWRYTGTRPSNLANNTILVKWLPQNDLLGHPMTRAFITHAGSHGVYESICNGVPMVMMPLFGDQMDNAKRMETKGAGVTLNVLEMTSEDLENALKAVINDKSYKENIMRLSSLHKDRPVEPLDLAVFWVEFVMRHKGAPHLRPAAHDLTWYQYHSLDVIGFLLAVVLTVAFITFKCCAYGYRKCLGKKGRVKKAHKSKTH
Km [9]: 59.1 µM
Vmax [9]: 0.000725 µmol/min
